US20120121504A1 (UNITED STATES OF AMERICA AS REPRESENTED BY THE SECRETARY …, published 2012)
Ends that are not written are not given here.

How the values were obtained:
human CD52 [1] = target: T1, human CD52 (human, UniProt P31358 25-36, ends and bridges not checked); assay: flow cytometry, MFI ratio grade (sample over background), allogeneic B cells
T1 construct: whole, on cells; also called CD52 antigen
T1 chain (looked up): GQNDTSQTSSPS

human CD52 [2] = target: T1, human CD52; assay: flow cytometry, MFI ratio grade (sample over background), third party B cells

B1: alemtuzumab (humanized anti-human CD52 mAb with human IgG1 kappa constant domains) (antibody, V domains shown)
VH: QVQLQESGPGLVRPSQTLSLTCTVSGFTFTDFYMNWVRQPPGRGLEWIGFIRDKAKGYTTEYNPSVKGRVTMLVDTSKNQFSLRLSSVTAADTAVYYCAREGHTAAPFDYWGQGSLVTVSS
VL: DIQMTQSPSSLSASVGDRVTITCKASQNIDKYLNWYQQKPGKAPKLLIYNTNNLQTGVPSRFSGSGSGTDFTFTISSLQPEDIATYYCLQHISRPRTFGQGTKVEIKR
- MFI ratio (sample over background) (human CD52 [1]): > 100 ratio
- MFI ratio (sample over background) (human CD52 [2]): > 100 ratio
